From patent US7063946B2, “Methods, reagents, kits and apparatus for protein function analysis” (Meso Scale Technologies, LLC., priority 2001, dated 2006)

Assays:
[1] = biological target: T1, EGFR-pY992 (SEQ ID NO: 5) (Homo sapiens, UniProt P00533); experiment: Single-well 4-spot assay for multiple peptide-protein interactions; assay type: binding; settings: 4-spot plate
T1 construct: phosphotyrosine at Tyr992 (chemical modification); purchased New England Peptide, Fitchburg Mass; host or cells: chemical synthesis
Text: Four phosphopeptides and their cognate binding proteins (Table 14) were selected for an integrated assay of multiple peptide-protein interaction in 4-spot Multi-Array plates. The IkBa-24pp peptide and its binding protein, βTRCP, are described in Example 10. […] These phosphotyrosine containing peptides are recognized by different adaptor or effecter proteins of the receptor tyrosine kinase signaling pathway.
These four peptides were coupled to BSA carrier protein through cystine residue. After purification on PD-10 gel filtration columns, the peptide-BSA conjugates were then deposited on the assay domains of a 4-spot multi-array IPR plate (i.e., in one of the four exposed regions of working electrode defined by the dielectric layer) with an automated micro-dispensing system (Bio-Dot Dispenser, Bio-Dot, Irvine Calif.). […] These plates are dried then used or stored under desiccated conditions. A few hours prior to usage the plates were rehydrated and blocked with 3% BSA in PBS. […] The in vitro translated and biotin-labeled proteins were then assayed in the 4-spot multi-array IPR plates under conditions described in Example 10.

Fert2 = biological target: T2, Fert2 (Mus musculus, UniProt P70451); experiment: Kinase inhibitor profiling, pEY phosphorylation; assay type: biochemical
T2 construct: specificity data for proteins generated from a library of eighteen full-length clones; host or cells: rabbit reticulocyte lysate, TnT coupled transcription/translation
T2 sequence (P70451 whole entry): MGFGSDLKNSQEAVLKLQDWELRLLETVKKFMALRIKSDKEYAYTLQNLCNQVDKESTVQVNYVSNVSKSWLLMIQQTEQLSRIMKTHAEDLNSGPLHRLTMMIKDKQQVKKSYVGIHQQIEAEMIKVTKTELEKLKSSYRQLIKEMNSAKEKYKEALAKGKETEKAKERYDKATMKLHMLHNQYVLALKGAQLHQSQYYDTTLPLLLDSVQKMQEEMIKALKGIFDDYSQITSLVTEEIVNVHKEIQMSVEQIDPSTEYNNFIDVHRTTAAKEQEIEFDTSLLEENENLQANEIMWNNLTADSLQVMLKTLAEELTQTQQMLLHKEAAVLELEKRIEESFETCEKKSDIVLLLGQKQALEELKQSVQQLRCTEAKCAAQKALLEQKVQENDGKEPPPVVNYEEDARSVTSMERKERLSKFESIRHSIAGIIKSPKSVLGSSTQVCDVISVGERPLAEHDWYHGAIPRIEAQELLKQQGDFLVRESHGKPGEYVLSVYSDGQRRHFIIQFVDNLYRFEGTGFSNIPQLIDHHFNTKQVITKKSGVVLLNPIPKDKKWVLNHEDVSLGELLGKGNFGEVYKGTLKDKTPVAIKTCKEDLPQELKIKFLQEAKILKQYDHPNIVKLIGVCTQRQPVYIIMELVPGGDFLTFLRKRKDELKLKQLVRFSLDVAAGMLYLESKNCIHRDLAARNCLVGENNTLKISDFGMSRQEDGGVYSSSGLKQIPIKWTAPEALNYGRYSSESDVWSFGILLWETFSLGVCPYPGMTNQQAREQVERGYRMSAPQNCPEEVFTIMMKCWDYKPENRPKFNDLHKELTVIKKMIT

Compound: 3872466: IMAGE clone protein: mCBP [compound 3872466]
- ECL signal, spot 4 EGFR-pY992 [1]: 498

Compound: COc1c(C=O)c(O)cc2c1C(=O)c1ccccc1C2=O [Damnacanthal]
- Inhibition specificity towards pEY phosphorylation at 10X IC50, Fert2 (Fert2): L (low inhibition (“L”=between 50–75% of the activity remaining))
